Test system: Bacillus subtilis
Test: cleaved RNA product abundance (RNA/gDNA barcode ratio) relative to median wild-type variant (ratio to wild type); higher = more accumulation of the downstream cleavage product
Settings: cleavage site: cggR-gapA (positions -7 to +36 mutated)
Outline: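 Reporter mRNAs based on truncated aprE or tetM carried barcoded, mutagenized RNase Y cleavage-site windows built from oligos with a 9% error rate and were integrated into the B. subtilis chromosome. Cultures grew in LB at 37°C from OD600 0.0003 to 0.3. Cleaved RNA was gel-selected, reverse transcribed and barcode-sequenced together with genomic DNA barcodes, and UMIs were collapsed. Cleaved product abundance is the per-construct ratio of RNA to gDNA barcodes, scaled to the median of constructs carrying the unmutated site.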

[1] = experiment (reporter, strain, medium): exp 2b: truncated aprE reporter, strain BJT200
[2] = experiment (reporter, strain, medium): exp 4a: truncated aprE reporter, strain BJT201 with 2% xylose (RNase J1 expressed)
[3] = experiment (reporter, strain, medium): exp 6: tetM reporter, strain 168

Sequence	cleaved RNA product abundance [1]	cleaved RNA product abundance [2]	cleaved RNA product abundance [3]
ACAGACGAAGGAGCCGCAAAGAAGTTATTAAGATATGAATAATCCCTCAATATAAATATCTCTCACTTATTTAAA	0.0758	0.115	
ACAGACGAAGGAGCCGCAAAGAAGTTATTAAGCAATGAATAATCCCTCAATATAAATATCTCTCACTTATTTAAA	0.0903	0.122	
ACAGACGAAGGAGCCGCAAAGAAGTTATTAAGCCATGAATAATCCCTCAATATAAATATCTCTCACTTATTTAAA		0.106	0.058
ACAGACGAAGGAGCCGCAAAGAAGTTATTAAGCGATAAATAATCCCTCAATATAAATATCTCTCACTTATTTAAA	0.0673	0.0716	
ACAGACGAAGGAGCCGCAAAGAAGTTATTAAGCGATCAATAATCCCTCAATATAAATATCTCTCACTTATTTAAA	0.0893	0.0886	
ACAGACGAAGGAGCCGCAAAGAAGTTATTAAGCGATGAACAATCCCTCAATATAAATATCTCTCACTTATTTAAA		0.133	
ACAGACGAAGGAGCCGCAAAGAAGTTATTAAGCGATGAAGAATCCCTCAATATAAATATCTCTCACTTATTTAAA		0.0967	
ACAGACGAAGGAGCCGCAAAGAAGTTATTAAGCGATGAATAAACCCTCAATATAAATATCTCTCACTTATTTAAA		0.0954	
ACAGACGAAGGAGCCGCAAAGAAGTTATTAAGCGATGAATAAGCCCTCAATATAAATATCTCTCACTTATTTAAA		0.108	
ACAGACGAAGGAGCCGCAAAGAAGTTATTAAGCGATGAATAATACCTCAATATAAATATCTCTCACTTATTTAAA	0.0864	0.127	
ACAGACGAAGGAGCCGCAAAGAAGTTATTAAGCGATGAATAATCACTCAATATAAATATCTCTCACTTATTTAAA		0.101	
ACAGACGAAGGAGCCGCAAAGAAGTTATTAAGCGATGAATAATCCATCAATATAAATATCTCTCACTTATTTAAA	0.121	0.154	
ACAGACGAAGGAGCCGCAAAGAAGTTATTAAGCGATGAATAATCCCACAATATAAATATCTCTCACTTATTTAAA		0.0785	
ACAGACGAAGGAGCCGCAAAGAAGTTATTAAGCGATGAATAATCCCCCAATATAAATATCTCTCACTTATTTAAA	0.0922	0.13	
ACAGACGAAGGAGCCGCAAAGAAGTTATTAAGCGATGAATAATCCCGCAATATAAATATCTCTCACTTATTTAAA	0.0603	0.0767	
ACAGACGAAGGAGCCGCAAAGAAGTTATTAAGCGATGAATAATCCCTAAATATAAATATCTCTCACTTATTTAAA	0.132	0.207	
ACAGACGAAGGAGCCGCAAAGAAGTTATTAAGCGATGAATAATCCCTCAAAATAAATATCTCTCACTTATTTAAA	0.0793	0.108	
ACAGACGAAGGAGCCGCAAAGAAGTTATTAAGCGATGAATAATCCCTCAAGATAAATATCTCTCACTTATTTAAA	0.0861	0.0789	
ACAGACGAAGGAGCCGCAAAGAAGTTATTAAGCGATGAATAATCCCTCAATAAAAATATCTCTCACTTATTTAAA		0.0528	
ACAGACGAAGGAGCCGCAAAGAAGTTATTAAGCGATGAATAATCCCTCAATAGAAATATCTCTCACTTATTTAAA	0.0778	0.0613	

Sequence	cleaved RNA product abundance [1]	cleaved RNA product abundance [2]	cleaved RNA product abundance [3]
ACAGACGAAGGAGCCGCAAAGAAGTTATTAAGCGATGAATAATCCCTCAATATAAAAATCTCTCACTTATTTAAA	0.111	0.111	
ACAGACGAAGGAGCCGCAAAGAAGTTATTAAGCGATGAATAATCCCTCAATATAAACATCTCTCACTTATTTAAA	0.0873	0.0627	
ACAGACGAAGGAGCCGCAAAGAAGTTATTAAGCGATGAATAATCCCTCAATATAAATAACTCTCACTTATTTAAA	0.114	0.102	
ACAGACGAAGGAGCCGCAAAGAAGTTATTAAGCGATGAATAATCCCTCAATATAAATACCTCTCACTTATTTAAA		0.118	
ACAGACGAAGGAGCCGCAAAGAAGTTATTAAGCGATGAATAATCCCTCAATATAAATATCTCTCACTTATTTAAA	0.0916	0.116	0.132
ACAGACGAAGGAGCCGCAAAGAAGTTATTAAGCGATGAATAATCCCTCAATATAAATATTTCTCACTTATTTAAA	0.0865	0.171	
ACAGACGAAGGAGCCGCAAAGAAGTTATTAAGCGATGAATAATCCCTCAATATAGATATCTCTCACTTATTTAAA		0.0736	
ACAGACGAAGGAGCCGCAAAGAAGTTATTAAGCGATGAATAATCCCTCAATATTAATATCTCTCACTTATTTAAA		0.151	
ACAGACGAAGGAGCCGCAAAGAAGTTATTAAGCGATGAATAATCCCTCACTATAAATATCTCTCACTTATTTAAA	0.0669	0.0749	
ACAGACGAAGGAGCCGCAAAGAAGTTATTAAGCGATGAATAATCCCTCATAATAAATATCTCTCACTTATTTAAA	0.165		
ACAGACGAAGGAGCCGCAAAGAAGTTATTAAGCGATGAATAATCCCTCCATATAAATATCTCTCACTTATTTAAA		0.0952	
ACAGACGAAGGAGCCGCAAAGAAGTTATTAAGCGATGAATAATCCCTCTATATAAATATCTCTCACTTATTTAAA		0.0811	
ACAGACGAAGGAGCCGCAAAGAAGTTATTAAGCGATGAATAATCCCTGAATATAAATATCTCTCACTTATTTAAA		0.072	
ACAGACGAAGGAGCCGCAAAGAAGTTATTAAGCGATGAATAATCCCTTAATATAAATATCTCTCACTTATTTAAA		0.301	
ACAGACGAAGGAGCCGCAAAGAAGTTATTAAGCGATGAATAATCCGTCAATATAAATATCTCTCACTTATTTAAA		0.139	
ACAGACGAAGGAGCCGCAAAGAAGTTATTAAGCGATGAATAATCCTTCAATATAAATATCTCTCACTTATTTAAA	0.0918	0.119	
ACAGACGAAGGAGCCGCAAAGAAGTTATTAAGCGATGAATAATCGCTCAATATAAATATCTCTCACTTATTTAAA	0.561	0.726	
ACAGACGAAGGAGCCGCAAAGAAGTTATTAAGCGATGAATAATCTCTCAATATAAATATCTCTCACTTATTTAAA		0.0997	
ACAGACGAAGGAGCCGCAAAGAAGTTATTAAGCGATGAATAATGCCTCAATATAAATATCTCTCACTTATTTAAA		0.112	
ACAGACGAAGGAGCCGCAAAGAAGTTATTAAGCGATGAATAATTCCTCAATATAAATATCTCTCACTTATTTAAA	0.0741	0.096	

Sequence	cleaved RNA product abundance [1]	cleaved RNA product abundance [2]	cleaved RNA product abundance [3]
ACAGACGAAGGAGCCGCAAAGAAGTTATTAAGCGATGAATACTCCCTCAATATAAATATCTCTCACTTATTTAAA		0.102	
ACAGACGAAGGAGCCGCAAAGAAGTTATTAAGCGATGAATTATCCCTCAATATAAATATCTCTCACTTATTTAAA	0.101	0.101	
ACAGACGAAGGAGCCGCAAAGAAGTTATTAAGCGATGACTAATCCCTCAATATAAATATCTCTCACTTATTTAAA		0.0948	
ACAGACGAAGGAGCCGCAAAGAAGTTATTAAGCGATGCATAATCCCTCAATATAAATATCTCTCACTTATTTAAA		0.125	
ACAGACGAAGGAGCCGCAAAGAAGTTATTAAGCGATGTATAATCCCTCAATATAAATATCTCTCACTTATTTAAA		0.08	
ACAGACGAAGGAGCCGCAAAGAAGTTATTAAGCGATTAATAATCCCTCAACATAAATATCTCTCACTTATTTAAA		0.0653	
ACAGACGAAGGAGCCGCAAAGAAGTTATTAAGCGATTAATAATCCCTCAATATAAATATCTCTCACTTATTTAAA	0.0842	0.0983	
ACAGACGAAGGAGCCGCAAAGAAGTTATTAAGCGATTAATAATTCCTCAATATAAATATCTCTCACTTATTTAAA		0.0664	
ACAGACGAAGGAGCCGCAAAGAAGTTATTAAGCGCTGAATAATCCCTCAATATAAATATCTCTCACTTATTTAAA	0.0756	0.0581	
ACAGACGAAGGAGCCGCAAAGAAGTTATTAAGCTATGAATAATCCCTCAATATAAATATCTCTCACTTATTTAAA	0.0874	0.104	
ACAGACGAAGGAGCCGCAAAGAAGTTATTAAGGAAAGAATAATCCCTCAATATAAATATCTCTCACTTATTTAAA		0.0978	
ACAGACGAAGGAGCCGCAAAGAAGTTATTAAGGAACGAATAATCCCTCAATATAAATATCTCTCACTTATTTAAA	0.0842	0.073	
ACAGACGAAGGAGCCGCAAAGAAGTTATTAAGGAAGGAATAATCCCTCAATATAAATATCTCTCACTTATTTAAA		0.233	
ACAGACGAAGGAGCCGCAAAGAAGTTATTAAGGAATAAATAATCCCTCAATACAAATATCTCTCACTTATTTAAA		0.0573	
ACAGACGAAGGAGCCGCAAAGAAGTTATTAAGGAATAAATAATCCCTCAATATAAATATCTCTCACTTATTTAAA	0.0901	0.0868	
ACAGACGAAGGAGCCGCAAAGAAGTTATTAAGGAATCAATAATCCCTCAATATAAATATCTCTCACTTATTTAAA	0.0834	0.109	
ACAGACGAAGGAGCCGCAAAGAAGTTATTAAGGAATGAAAAATCCCTCAATATAAATATCTCTCACTTATTTAAA	0.0892	0.137	
ACAGACGAAGGAGCCGCAAAGAAGTTATTAAGGAATGAACAATCCCTCAATATAAATATCTCTCACTTATTTAAA	0.0794	0.124	

Reference: the supplement of paper PMC11780869
